Key:
soluble FcγRIIB (human) = soluble FcγRIIB (human) (UniProt P31994); assay: ELISA
[1] = molecular target: soluble monomeric FcγRIIIA-linker-AVITAG (human) (UniProt P08637); assay: ELISA

## ch4-4-20 "term is M, P396L" (antibody)
Soluble FcγRIIB (human)
  fold increase vs wt: 7.2 x
[1]
  fold increase vs wt: 1.9 x

## ch4-4-20 A231V, Q386H, V412M (antibody)
Soluble FcγRIIB (human)
  fold increase vs wt: 6 x
[1]
  fold increase vs wt: 1.5 x

## ch4-4-20 A378V, N390I, V422I (antibody)
[1]
  fold increase vs wt: 0.5 x

## ch4-4-20 D221Y, M252I, A330G, A339T, T359N, V422I, H433L (antibody)
Soluble FcγRIIB (human)
  fold increase vs wt: 6 x
[1]
  fold increase vs wt: 2.5 x

## ch4-4-20 D280E, S354F, A431D, L441I (antibody)
[1]
  fold increase vs wt: 3 x

## ch4-4-20 D312E, K327N, I378S (antibody)
[1]
  fold increase vs wt: 0.5 x

## ch4-4-20 D399E, M428L (antibody)
Soluble FcγRIIB (human)
  fold decrease vs wt: 0.5 x
[1]
  fold decrease vs wt: 0.5 x

## ch4-4-20 D399E, R292L, V185M (antibody)
Soluble FcγRIIB (human)
  fold increase vs wt: 0.5 x

## ch4-4-20 D401V (antibody)
[1]
  fold increase vs wt: 0.5 x

## ch4-4-20 E216D, E345K, S375I (antibody)
Soluble FcγRIIB (human)
  fold increase vs wt: 4 x
[1]
  fold increase vs wt: 0.5 x

## ch4-4-20 E233D, K334E (antibody)
[1]
  fold increase vs wt: 1.5 x

## ch4-4-20 E258D, N384K (antibody)
Soluble FcγRIIB (human)
  fold increase vs wt: 4 x
[1]
  fold increase vs wt: 1.25 x

## ch4-4-20 E258D, P396L (antibody)
Soluble FcγRIIB (human)
  fold increase vs wt: 4.9 x
[1]
  fold increase vs wt: 1.9 x

## ch4-4-20 F241L, E258G (antibody)
Soluble FcγRIIB (human)
  fold increase vs wt: 2.5 x
[1]
  fold increase vs wt: 2 x

## ch4-4-20 F243L, R255L, E318K (antibody)
[1]
  fold increase vs wt: 1 x

## ch4-4-20 F243L, V305I, A378D, F404S, P396L (antibody)
Soluble FcγRIIB (human)
  fold increase vs wt: 5.4 x
[1]
  fold increase vs wt: 1.6 x

## ch4-4-20 F275I, K334N, V348M (antibody)
[1]
  fold increase vs wt: 0.5 x

## ch4-4-20 F275L, Q362H, N384K, P396L (antibody)
Soluble FcγRIIB (human)
  fold increase vs wt: 3.7 x
[1]
  fold increase vs wt: 2.2 x

## ch4-4-20 F275Y (antibody)
[1]
  fold increase vs wt: 3 x

## ch4-4-20 G385E, P247H (antibody)
Soluble FcγRIIB (human)
  fold increase vs wt: 0.75 x
[1]
  fold increase vs wt: 1 x

## ch4-4-20 H224L (antibody)
[1]
  fold increase vs wt: 0.5 x

## ch4-4-20 H268D, E318D (antibody)
[1]
  fold increase vs wt: 1.5 x

## ch4-4-20 H268D, P396L (antibody)
Soluble FcγRIIB (human)
  fold increase vs wt: 13.7 x
[1]
  fold increase vs wt: 3.8 x

## ch4-4-20 H310Y, T289A, G337E (antibody)
[1]
  fold increase vs wt: 0.5 x

## ch4-4-20 I377F (antibody)
Soluble FcγRIIB (human)
  fold increase vs wt: 0.5 x
[1]
  fold increase vs wt: 1.5 x

## ch4-4-20 I377N (antibody)
[1]
  fold decrease vs wt: 0.5 x

## ch4-4-20 K210M, P396L (antibody)
Soluble FcγRIIB (human)
  fold increase vs wt: 4.6 x
[1]
  fold increase vs wt: 1.9 x

## ch4-4-20 K210N, K222I, K320M, P396L (antibody)
Soluble FcγRIIB (human)
  fold increase vs wt: 8.7 x
[1]
  fold increase vs wt: 2.7 x

## ch4-4-20 K218R, G281D, G385R (antibody)
[1]
  fold increase vs wt: 3.5 x

## ch4-4-20 K222N (antibody)
[1]
  fold increase vs wt: 1 x

## ch4-4-20 K222N, T335N, K370E, A378V, T394M (antibody)
Soluble FcγRIIB (human)
  fold increase vs wt: 7 x
[1]
  fold increase vs wt: 1 x

## ch4-4-20 K246I, Q362H, K370E (antibody)
Soluble FcγRIIB (human)
  fold decrease vs wt: 0.5 x

## ch4-4-20 K246N, Q419R, P396L (antibody)
Soluble FcγRIIB (human)
  fold increase vs wt: 4.8 x
[1]
  fold increase vs wt: 1.1 x

## ch4-4-20 K246R, S298N, I377F (antibody)
[1]
  fold increase vs wt: 1 x

## ch4-4-20 K246T, P396H (antibody)
Soluble FcγRIIB (human)
  fold increase vs wt: 2.5 x
[1]
  fold increase vs wt: 1 x

## ch4-4-20 K246T, Y319F (antibody)
[1]
  fold increase vs wt: 1 x

## ch4-4-20 K288N, K326N (antibody)
[1]
  fold increase vs wt: 1 x

## ch4-4-20 K290E, V369A, T393A, P396L (antibody)
Soluble FcγRIIB (human)
  fold increase vs wt: 6.7 x
[1]
  fold increase vs wt: 1.3 x

## ch4-4-20 K290T, G371D (antibody)
Soluble FcγRIIB (human)
  fold increase vs wt: 6 x
[1]
  fold increase vs wt: 0.25 x

## ch4-4-20 K290T, N390I, P396L (antibody)
Soluble FcγRIIB (human)
  fold increase vs wt: 6.1 x
[1]
  fold increase vs wt: 2.8 x

## ch4-4-20 K317N, F423-deleted (antibody)
Soluble FcγRIIB (human)
  fold increase vs wt: 7 x
[1]
  fold increase vs wt: 2.5 x

## ch4-4-20 K320E, K326E (antibody)
[1]
  fold increase vs wt: 1 x

## ch4-4-20 K326E, G385E (antibody)
[1]
  fold increase vs wt: 0.5 x

## ch4-4-20 K326I, P396L (antibody)
Soluble FcγRIIB (human)
  fold increase vs wt: 5.9 x
[1]
  fold increase vs wt: 2.9 x

## ch4-4-20 K326I, S408N, P396L (antibody)
Soluble FcγRIIB (human)
  fold increase vs wt: 9.3 x
[1]
  fold increase vs wt: 4 x

## ch4-4-20 K326Q, K334E, T359N, T366S (antibody)
[1]
  fold increase vs wt: 1.5 x

## ch4-4-20 K334E (antibody)
[1]
  fold increase vs wt: 2.5 x

## ch4-4-20 K334E, E380D (antibody)
Soluble FcγRIIB (human)
  fold increase vs wt: 4.5 x
[1]
  fold increase vs wt: 1.5 x

## ch4-4-20 K334E, T359N, T366S, Q386R (antibody)
[1]
  fold increase vs wt: 1 x

## ch4-4-20 K334I (antibody)
[1]
  fold increase vs wt: 1 x

## ch4-4-20 K334N (antibody)
[1]
  fold increase vs wt: 0.5 x

## ch4-4-20 K334N, P396L (antibody)
[1]
  fold increase vs wt: 3.1 x

## ch4-4-20 K370E, P396L (antibody)
Soluble FcγRIIB (human)
  fold increase vs wt: 6.6 x
[1]
  fold increase vs wt: 2 x

## ch4-4-20 K414N (antibody)
[1]
  fold decrease vs wt: 0.25 x

## ch4-4-20 L235P, V382M, S304G, V305I, V323I (antibody)
[1]
  fold increase vs wt: 2 x

## ch4-4-20 L398V (antibody)
[1]
  fold increase vs wt: 1.5 x

## ch4-4-20 N315I (antibody)
Soluble FcγRIIB (human)
  fold increase vs wt: 0.75 x

## ch4-4-20 P247L, A431V, S442F (antibody)
[1]
  fold vs wt: 1 x

## ch4-4-20 P247L, I377F (antibody)
[1]
  fold increase vs wt: 1 x

## ch4-4-20 P247L, L398Q (antibody)
[1]
  fold increase vs wt: 1.25 x

## ch4-4-20 P247L, W313R, E388G (antibody)
[1]
  fold increase vs wt: 1.5 x

## ch4-4-20 P291S, K288E, H268L, A141V (antibody)
[1]
  fold decrease vs wt: 0.5 x

## ch4-4-20 P396H (antibody)
[1]
  fold increase vs wt: 1 x

## ch4-4-20 P396L (antibody)
[1]
  fold increase vs wt: 1 x

## ch4-4-20 Q347H, A339V (antibody)
[1]
  fold increase vs wt: 0.5 x

## ch4-4-20 R255Q, K326E (antibody)
[1]
  fold increase vs wt: 2 x

## ch4-4-20 R301C, M252L, S192T (antibody)
[1]
  fold decrease vs wt: 0.5 x

## ch4-4-20 S219Y (antibody)
[1]
  fold increase vs wt: 1 x

## ch4-4-20 S298N, W381R (antibody)
[1]
  fold increase vs wt: 2 x

## ch4-4-20 S383N, N384K, T256N, V262L, K218E, R214I, K205E, F149Y, K133M (antibody)
[1]
  fold increase vs wt: 0.5 x

## ch4-4-20 T256S, V305I, K334E, N390S (antibody)
[1]
  fold increase vs wt: 1.5 x

## ch4-4-20 T335N, K370E, A378V, T394M, S424L (antibody)
[1]
  fold increase vs wt: 0.5 x

## ch4-4-20 T335N, P387S, H435Q (antibody)
[1]
  fold vs wt: 1.25 x

## ch4-4-20 T394M, V397M (antibody)
[1]
  fold increase vs wt: 0.5 x

## ch4-4-20 V279L, P395S (antibody)
[1]
  fold increase vs wt: 1 x

## ch4-4-20 V282M (antibody)
[1]
  fold increase vs wt: 1 x

## ch4-4-20 V284A, F372L (antibody)
[1]
  fold vs wt: 1 x

## ch4-4-20 V397M, T411A, S415N (antibody)
[1]
  fold increase vs wt: 0.25 x
